Test results published in patent US20230312721A1 (published 2023).

T1: 4Ig human B7-H3 (human, UniProt Q5ZPR3 29-466, limits assumed)
T1 construct: Soluble analyte in SPR; also called 4Ig-B7H3; 4Ig B7H3
T1 sequence: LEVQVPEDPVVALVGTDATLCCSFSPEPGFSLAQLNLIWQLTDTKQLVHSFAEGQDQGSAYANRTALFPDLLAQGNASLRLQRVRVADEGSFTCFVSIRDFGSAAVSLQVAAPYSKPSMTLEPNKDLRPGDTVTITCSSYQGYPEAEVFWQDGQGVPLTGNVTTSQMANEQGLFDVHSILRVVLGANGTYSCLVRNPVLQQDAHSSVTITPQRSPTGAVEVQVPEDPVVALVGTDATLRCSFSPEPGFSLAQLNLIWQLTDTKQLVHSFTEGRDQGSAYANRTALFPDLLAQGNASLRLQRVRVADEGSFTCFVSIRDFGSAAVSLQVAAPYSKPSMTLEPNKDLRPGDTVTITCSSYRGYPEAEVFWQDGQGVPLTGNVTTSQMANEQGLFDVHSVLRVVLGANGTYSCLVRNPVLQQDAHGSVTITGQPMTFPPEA


Each binder was assayed against T1, 4Ig human B7-H3 (assay: SPR, Carterra LSA; antibody captured on anti-human Fc lawn, 4Ig human B7-H3 as analyte).
Experimental: Chimeric and humanized antibodies were generated using CDR grafting methods using closely homologous human germline sequences. Six different humanized VH and four humanized VL sequences were combined to generate 24 different humanized IgG1 antibodies. The antibodies were expressed in HEK293 cells and purified using Protein A resin. Antibodies were buffer exchanged into PBS and quantified by OD280 and titer was calculated. Sample purity and aggregation status was determined by analytical Size Exclusion Chromatography (SEC-HPLC), which separates molecules based on molecular mass and hydrodynamic volume. Area % of each peak is calculated based on total area of the peaks. Peak symmetry is calculated to determine the peak fronting (<1) or tailing (>1). A column of 300A pore size was used for detection at 280 nm and PBS as the running buffer. Surface plasmon resonance studies to assess binding affinities were carried out on a Carterra LSA instrument. An anti-human Fc antibody “lawn” was prepared on a HC30M chip by amine coupling. The chip was activated with equal volume of 100 mM MES pH 5.5, 100 mM S-NHS and 400 mM EDC. The anti-human IgG Fc antibody was immobilized. The chip was deactivated with 1 M ethanolamine pH 8.5. Antibodies were diluted and printed onto the anti-human Fc lawn. An 8-point series of 4Ig human B7-H3 was prepared.
The characterization data, including expression titers (mg of purified protein per L of culture), purity (% monomer peak by analytical SEC-HPLC) and affinity measurement by SPR (ka, kd and KD) are summarized in Table 1 and FIG. 1-4.

Kd | koff | kon | Binder
9.2 nM | 0.00035 s⁻¹ | 38000 M⁻¹ s⁻¹ | L3H5 (antibody, human IgG1, kappa, V domains shown, Humanized IgG1, HEK293; chains tied by the L/H names; also called YB8 L3 + YB8 H5) VH: QVQLVQSGAEVKKPGASVKVSCKASGYTFTNYDINWVRQATGQGLEWMGWIFPGDGSTQYNEKFQGRVTMTTNTSISTAYMELSSLRSEDTAVYYCARQTTATWFAYWGQGTLVTVSS VL: EIVMTQSPDFQSVTPKEKVTLTCRASQSISDYLHWYQQKPDQSPKLLIKYASQSISGVPSRFSGSGSGSDFTLTINSLEAEDAGVYYCQNGHSFPLTFGQGTKLEIKR
11 nM | 0.00036 s⁻¹ | 34000 M⁻¹ s⁻¹ | L4H4 (antibody, human IgG1, kappa, V domains shown, Humanized IgG1, HEK293; chains tied by the L/H names; also called YB8 L4 + YB8 H4) VH: QVQLVQSGAEVKKPGASVKVSCKASGYTFTNYDINWVRQATGQGLEWIGWIFPGDGSTQYNEKFQGRVTMTTNTSISTAYMELSSLRSEDTAVYFCARQTTATWFAYWGQGTLVTVSS VL: EIVMTQSPDFQSVTPKEKVTLTCRASQSISDYLHWYQQKPDQSPKLLIKYASQSISGIPSRFSGSGSGTDFTLTINSVEAEDAGVYYCQNGHSFPLTFGQGTKLEIKR
13 nM | 0.00039 s⁻¹ | 31000 M⁻¹ s⁻¹ | L4H3 (antibody, human IgG1, kappa, V domains shown, Humanized IgG1, HEK293; chains tied by the L/H names; also called YB8 L4 + YB8 H3) VH: QVQLVQSGAEVKKPGASVKVSCKASGYTFTNYDINWVRQATGQGLEWMGWIFPGDGSTQYNEKFKGRVTLTRNTSISTAYMELSSLRSEDTAVYFCARQTTATWFAYWGQGTLVTVSS VL: EIVMTQSPDFQSVTPKEKVTLTCRASQSISDYLHWYQQKPDQSPKLLIKYASQSISGIPSRFSGSGSGTDFTLTINSVEAEDAGVYYCQNGHSFPLTFGQGTKLEIKR
23 nM | 0.00055 s⁻¹ | 24000 M⁻¹ s⁻¹ | L4H1 (antibody, human IgG1, kappa, V domains shown, Humanized IgG1, HEK293; chains tied by the L/H names; also called YB8 L4 + YB8 H1) VH: QVQLVQSGAEVKKPGASVKVSCKASGYTFTNYDINWVRQATGQGLEWIGWIFPGDGSTQYNEKFQGRVTLTTNTSISTAYMELSSLRSEDTAVYYCARQTTATWFAYWGQGTLVTVSS VL: EIVMTQSPDFQSVTPKEKVTLTCRASQSISDYLHWYQQKPDQSPKLLIKYASQSISGIPSRFSGSGSGTDFTLTINSVEAEDAGVYYCQNGHSFPLTFGQGTKLEIKR
9.3 nM | 0.0004 s⁻¹ | 43000 M⁻¹ s⁻¹ | L4H5 (antibody, human IgG1, kappa, V domains shown, Humanized IgG1, HEK293; chains tied by the L/H names; also called YB8 L4 + YB8 H5) VH: QVQLVQSGAEVKKPGASVKVSCKASGYTFTNYDINWVRQATGQGLEWMGWIFPGDGSTQYNEKFQGRVTMTTNTSISTAYMELSSLRSEDTAVYYCARQTTATWFAYWGQGTLVTVSS VL: EIVMTQSPDFQSVTPKEKVTLTCRASQSISDYLHWYQQKPDQSPKLLIKYASQSISGIPSRFSGSGSGTDFTLTINSVEAEDAGVYYCQNGHSFPLTFGQGTKLEIKR
9.6 nM | 0.00042 s⁻¹ | 43000 M⁻¹ s⁻¹ | L4H6 (antibody, human IgG1, kappa, V domains shown, Humanized IgG1, HEK293; chains tied by the L/H names; also called YB8 L4 + YB8 H6) VH: QVQLQQSGAEVKKPGASVKLSCKASGYTFTNYDINWVRQATGQGLEWIGWIFPGDGSTQYAQKFQGRATLTTNTSISTAYMELSSLRSEDTAVYFCARQTTATWFAYWGQGTLVTVSS VL: EIVMTQSPDFQSVTPKEKVTLTCRASQSISDYLHWYQQKPDQSPKLLIKYASQSISGIPSRFSGSGSGTDFTLTINSVEAEDAGVYYCQNGHSFPLTFGQGTKLEIKR
11 nM | 0.00039 s⁻¹ | 36000 M⁻¹ s⁻¹ | L4H2 (antibody, human IgG1, kappa, V domains shown, Humanized IgG1, HEK293; chains tied by the L/H names; also called YB8 L4 + YB8 H2) VH: QVQLQQSGAEVKKPGASVKVSCKASGYTFTNYDINWVRQATGQGLEWIGWIFPGDGSTQYNEKFKGRATLTRNTSISTAYMELSSLRSEDTAVYYCARQTTATWFAYWGQGTLVTVSS VL: EIVMTQSPDFQSVTPKEKVTLTCRASQSISDYLHWYQQKPDQSPKLLIKYASQSISGIPSRFSGSGSGTDFTLTINSVEAEDAGVYYCQNGHSFPLTFGQGTKLEIKR
20 nM | 0.0005 s⁻¹ | 25000 M⁻¹ s⁻¹ | L3H6 (antibody, human IgG1, kappa, V domains shown, Humanized IgG1, HEK293; chains tied by the L/H names; also called YB8 L3 + YB8 H6) VH: QVQLQQSGAEVKKPGASVKLSCKASGYTFTNYDINWVRQATGQGLEWIGWIFPGDGSTQYAQKFQGRATLTTNTSISTAYMELSSLRSEDTAVYFCARQTTATWFAYWGQGTLVTVSS VL: EIVMTQSPDFQSVTPKEKVTLTCRASQSISDYLHWYQQKPDQSPKLLIKYASQSISGVPSRFSGSGSGSDFTLTINSLEAEDAGVYYCQNGHSFPLTFGQGTKLEIKR
